B1: Microtubule protein alp7 (Schizosaccharomyces pombe (strain ATCC 38366 / 972)), Q9URY2 (parent)
chain: MSDIVSSSTDYSRRSPSSSSIGTNETDHTGFHEKRQGASSESLIPPAQRSSEESMPAPKLFPKLTSKPNPQLNLKDTLNKRVSDRLQALELNKSFDFSGTPRPMHPISHPLSQHKTPEFKHRKRNVESILTPKNPSLFSSSNAASQRGSLNTAPSNFAYSHSSSLQTSASSRPPVLSNGSFPRQTNTAPLNPPVHLKDNIRNSATPSTSQADIPTQYPINSTQKQQAKYEAEIEGYKAKLAGTYHEISVLQNTIVNVSGQLIAVNDQLQQLRSGKASTSPSTKDTNMRLVEGHNEETLALQRGKYTQEEVDKLIQERMEKVAEDLHAQYSAKHTQKINAFKANYARKYEATIQELQNQIGTAPNAPKISNSNWEEERRALKADNQTLQKQLEKAIQERQDMSDFLNNFKADMAKSDKLLMQQQSQQTGDLETLRLQLQALQEELRVEREERQQLIQMSEDLVIAMDQLNLEQKS
partner: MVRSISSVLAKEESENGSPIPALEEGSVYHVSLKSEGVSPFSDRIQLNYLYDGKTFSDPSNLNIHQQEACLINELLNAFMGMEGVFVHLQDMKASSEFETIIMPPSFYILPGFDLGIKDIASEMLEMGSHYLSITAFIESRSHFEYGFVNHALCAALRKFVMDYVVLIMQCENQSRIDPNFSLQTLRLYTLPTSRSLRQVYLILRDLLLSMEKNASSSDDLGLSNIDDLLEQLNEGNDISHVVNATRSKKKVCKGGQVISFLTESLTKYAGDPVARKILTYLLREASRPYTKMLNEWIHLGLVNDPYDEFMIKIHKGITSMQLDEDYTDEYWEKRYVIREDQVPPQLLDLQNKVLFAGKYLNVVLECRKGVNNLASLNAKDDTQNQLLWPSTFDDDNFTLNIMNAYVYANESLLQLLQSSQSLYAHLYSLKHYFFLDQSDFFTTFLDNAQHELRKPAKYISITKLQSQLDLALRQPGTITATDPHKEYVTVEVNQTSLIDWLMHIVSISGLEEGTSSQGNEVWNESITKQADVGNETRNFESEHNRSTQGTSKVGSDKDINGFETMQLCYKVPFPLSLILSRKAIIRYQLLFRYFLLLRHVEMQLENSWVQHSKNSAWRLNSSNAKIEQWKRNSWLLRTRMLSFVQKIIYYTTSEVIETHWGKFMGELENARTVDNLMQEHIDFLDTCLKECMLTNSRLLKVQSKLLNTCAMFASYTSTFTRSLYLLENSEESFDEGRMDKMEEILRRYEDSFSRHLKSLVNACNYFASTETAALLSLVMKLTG
B2: Microtubule protein alp7 (Schizosaccharomyces pombe (strain ATCC 38366 / 972)), Q9URY2 (parent)
chain: B1 chain
partner: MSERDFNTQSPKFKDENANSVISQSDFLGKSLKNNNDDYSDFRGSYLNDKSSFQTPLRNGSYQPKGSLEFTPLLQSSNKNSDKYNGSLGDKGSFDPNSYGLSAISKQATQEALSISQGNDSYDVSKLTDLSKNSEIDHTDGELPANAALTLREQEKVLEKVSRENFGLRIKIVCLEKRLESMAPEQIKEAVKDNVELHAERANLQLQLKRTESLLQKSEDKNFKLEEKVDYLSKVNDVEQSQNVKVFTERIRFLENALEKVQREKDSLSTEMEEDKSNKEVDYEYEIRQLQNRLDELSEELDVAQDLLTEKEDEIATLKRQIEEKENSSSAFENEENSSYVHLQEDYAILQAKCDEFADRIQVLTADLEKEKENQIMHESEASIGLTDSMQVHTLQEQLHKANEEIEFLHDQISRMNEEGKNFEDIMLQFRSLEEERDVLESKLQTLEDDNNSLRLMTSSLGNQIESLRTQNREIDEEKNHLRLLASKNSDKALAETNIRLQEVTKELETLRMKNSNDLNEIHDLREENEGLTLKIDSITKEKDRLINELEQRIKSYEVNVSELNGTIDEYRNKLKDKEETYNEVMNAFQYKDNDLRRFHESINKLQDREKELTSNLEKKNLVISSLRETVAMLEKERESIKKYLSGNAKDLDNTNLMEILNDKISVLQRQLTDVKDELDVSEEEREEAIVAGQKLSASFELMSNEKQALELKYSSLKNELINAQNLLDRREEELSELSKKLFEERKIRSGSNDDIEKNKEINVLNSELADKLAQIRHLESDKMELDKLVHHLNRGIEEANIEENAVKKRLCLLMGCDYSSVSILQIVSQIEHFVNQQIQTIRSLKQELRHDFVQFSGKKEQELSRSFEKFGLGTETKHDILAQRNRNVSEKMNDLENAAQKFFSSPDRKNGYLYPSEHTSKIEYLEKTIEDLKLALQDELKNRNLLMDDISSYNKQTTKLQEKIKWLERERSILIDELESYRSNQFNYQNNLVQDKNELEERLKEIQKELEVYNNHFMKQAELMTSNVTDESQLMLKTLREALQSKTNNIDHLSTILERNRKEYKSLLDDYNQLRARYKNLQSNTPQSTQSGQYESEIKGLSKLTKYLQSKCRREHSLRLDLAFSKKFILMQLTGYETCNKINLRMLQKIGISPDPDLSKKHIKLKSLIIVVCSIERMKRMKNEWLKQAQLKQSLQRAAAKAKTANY
B3: Microtubule protein alp7 (Schizosaccharomyces pombe (strain ATCC 38366 / 972)), Q9URY2 (parent)
chain: B1 chain
partner: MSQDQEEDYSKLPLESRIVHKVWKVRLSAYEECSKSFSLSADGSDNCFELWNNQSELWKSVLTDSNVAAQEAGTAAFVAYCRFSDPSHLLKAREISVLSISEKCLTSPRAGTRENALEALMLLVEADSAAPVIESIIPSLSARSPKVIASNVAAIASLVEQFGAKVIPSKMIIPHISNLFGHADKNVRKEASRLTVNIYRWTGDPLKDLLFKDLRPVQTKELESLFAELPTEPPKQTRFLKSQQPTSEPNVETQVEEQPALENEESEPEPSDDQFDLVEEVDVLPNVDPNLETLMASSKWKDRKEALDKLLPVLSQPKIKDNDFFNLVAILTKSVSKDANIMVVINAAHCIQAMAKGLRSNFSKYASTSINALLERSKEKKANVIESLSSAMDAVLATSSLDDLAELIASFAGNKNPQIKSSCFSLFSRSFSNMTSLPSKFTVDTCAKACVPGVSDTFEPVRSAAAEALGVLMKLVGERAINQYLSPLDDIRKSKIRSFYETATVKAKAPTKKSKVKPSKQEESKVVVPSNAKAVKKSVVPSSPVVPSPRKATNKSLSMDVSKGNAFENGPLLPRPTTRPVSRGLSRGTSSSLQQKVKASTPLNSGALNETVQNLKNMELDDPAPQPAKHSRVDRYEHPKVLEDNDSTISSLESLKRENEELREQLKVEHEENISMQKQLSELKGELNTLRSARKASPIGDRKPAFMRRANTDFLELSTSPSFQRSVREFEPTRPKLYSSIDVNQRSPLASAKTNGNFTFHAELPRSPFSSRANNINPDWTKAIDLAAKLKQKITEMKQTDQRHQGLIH

The first test covers variants of B1. As to conditions: with spc97_schpo alp4, Q9Y705.
For the variant K341A;Y344A;R346A;K347A;Y348A, the “effect of a mutation on the interaction” value was “disrupting interaction”.

In the next test the parent is B2. As to conditions: with pcp1_schpo pcp1, Q92351.
K341A;Y344A;R346A;K347A;Y348A: the “effect of a mutation on the interaction” value is on record as “disrupting interaction”.

In the next test the parent is B3. Conditions: with alp14_schpo alp14, O94534.
K341A;Y344A;R346A;K347A;Y348A: the “effect of a mutation on the interaction” value is recorded as “disrupting interaction”.

Source of the values: IntAct's records for PubMed 24937146.
